Common to all, as to assay: Kinase Profiling Assay
Holding throughout (assay type): biochemical
Holding throughout (conditions): 100 μM

For assay [1], the target named is T1, CLK3 (h) (Homo sapiens, UniProt P49761).
T1 construct: purchased Millipore
In outline: (§1)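 Specificity of MK2 inhibitory peptides is assessed against a panel of 266 human kinases. Kinase transfers a radiolabeled phosphate from ATP onto a positively charged substrate, which is trapped on a negatively charged filter and quantified by scintillation counting against full-activity control; duplicate determinations.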

Assay [2] deals with T2, cSRC (h) (Homo sapiens, UniProt P12931).
T2 construct: purchased Millipore
In outline: as §1

The target in assay [3] is T3, BrSK2 (h) (Homo sapiens, UniProt Q8IWQ3).
T3 sequence (Q8IWQ3 1-736): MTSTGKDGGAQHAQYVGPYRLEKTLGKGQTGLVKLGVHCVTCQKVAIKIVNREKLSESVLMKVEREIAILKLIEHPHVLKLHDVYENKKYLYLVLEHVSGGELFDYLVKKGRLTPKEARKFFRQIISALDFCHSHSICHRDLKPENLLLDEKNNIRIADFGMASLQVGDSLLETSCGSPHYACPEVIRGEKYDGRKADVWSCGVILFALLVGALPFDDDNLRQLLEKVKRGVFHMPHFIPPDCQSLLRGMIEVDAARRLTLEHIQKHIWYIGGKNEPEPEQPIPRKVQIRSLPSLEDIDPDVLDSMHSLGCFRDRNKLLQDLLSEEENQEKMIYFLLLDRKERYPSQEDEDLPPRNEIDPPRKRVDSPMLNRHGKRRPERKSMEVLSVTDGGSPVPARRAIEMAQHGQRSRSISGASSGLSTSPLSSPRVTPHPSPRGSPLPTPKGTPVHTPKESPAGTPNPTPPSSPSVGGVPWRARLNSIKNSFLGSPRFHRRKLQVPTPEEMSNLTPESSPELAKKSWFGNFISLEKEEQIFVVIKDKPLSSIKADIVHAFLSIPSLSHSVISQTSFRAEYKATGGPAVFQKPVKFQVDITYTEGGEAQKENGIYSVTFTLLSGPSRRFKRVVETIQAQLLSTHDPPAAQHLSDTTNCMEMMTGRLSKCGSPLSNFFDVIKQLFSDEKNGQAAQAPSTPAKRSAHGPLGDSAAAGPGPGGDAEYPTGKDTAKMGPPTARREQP
In outline:
as §1

Assay [4] has as its target T4, HIPK2 (h) (Homo sapiens, UniProt Q9H2X6).
T4 construct: purchased Millipore
The method, boiled down:
as §1

The target in assay [5] is T5, EphA3 (h) (Homo sapiens, UniProt P29320).
T5 construct: purchased Millipore
T5 sequence (P29320 21-983): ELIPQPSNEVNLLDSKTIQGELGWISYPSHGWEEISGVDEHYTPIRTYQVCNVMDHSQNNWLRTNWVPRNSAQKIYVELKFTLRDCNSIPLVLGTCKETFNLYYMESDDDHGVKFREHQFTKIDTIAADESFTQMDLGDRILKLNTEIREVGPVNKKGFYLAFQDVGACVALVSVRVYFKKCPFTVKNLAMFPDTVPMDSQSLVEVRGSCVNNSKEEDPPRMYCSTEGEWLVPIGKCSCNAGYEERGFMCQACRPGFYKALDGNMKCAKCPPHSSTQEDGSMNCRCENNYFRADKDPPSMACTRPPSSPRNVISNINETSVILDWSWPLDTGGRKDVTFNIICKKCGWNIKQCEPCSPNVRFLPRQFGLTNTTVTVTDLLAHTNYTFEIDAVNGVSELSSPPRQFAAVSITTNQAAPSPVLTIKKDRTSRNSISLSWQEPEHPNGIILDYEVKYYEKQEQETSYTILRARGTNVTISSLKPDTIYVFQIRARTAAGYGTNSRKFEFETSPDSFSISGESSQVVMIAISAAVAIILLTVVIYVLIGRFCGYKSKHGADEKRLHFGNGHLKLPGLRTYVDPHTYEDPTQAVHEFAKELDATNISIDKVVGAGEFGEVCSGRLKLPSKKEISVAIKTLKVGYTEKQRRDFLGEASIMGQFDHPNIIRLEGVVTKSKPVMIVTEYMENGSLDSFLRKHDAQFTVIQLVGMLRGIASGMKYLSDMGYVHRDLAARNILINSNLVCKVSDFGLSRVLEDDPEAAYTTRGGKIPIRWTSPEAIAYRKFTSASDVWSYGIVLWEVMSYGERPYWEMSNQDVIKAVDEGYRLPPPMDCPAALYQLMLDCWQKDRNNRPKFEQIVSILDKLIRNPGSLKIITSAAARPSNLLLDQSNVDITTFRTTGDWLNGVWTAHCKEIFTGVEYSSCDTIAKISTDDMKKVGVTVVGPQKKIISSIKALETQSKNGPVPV
The method, boiled down:
as §1

In assay [6] the target is T6, cKit(D816H) (h) (Homo sapiens, UniProt P10721, D816H).
T6 construct: purchased Millipore
In outline: as §1

Assay [7] concerns the target T7, CaMKIIβ (h) (Homo sapiens, UniProt Q13554).
T7 construct: purchased Millipore
In outline:
as §1

In assay [8] the target is SRPK1 (h) (Homo sapiens, UniProt Q96SB4). The method, boiled down:
as §1

The target in assay [9] is T8, HIPK1 (h) (Homo sapiens, UniProt Q86Z02).
T8 construct: purchased Millipore
T8 sequence (Q86Z02 whole entry): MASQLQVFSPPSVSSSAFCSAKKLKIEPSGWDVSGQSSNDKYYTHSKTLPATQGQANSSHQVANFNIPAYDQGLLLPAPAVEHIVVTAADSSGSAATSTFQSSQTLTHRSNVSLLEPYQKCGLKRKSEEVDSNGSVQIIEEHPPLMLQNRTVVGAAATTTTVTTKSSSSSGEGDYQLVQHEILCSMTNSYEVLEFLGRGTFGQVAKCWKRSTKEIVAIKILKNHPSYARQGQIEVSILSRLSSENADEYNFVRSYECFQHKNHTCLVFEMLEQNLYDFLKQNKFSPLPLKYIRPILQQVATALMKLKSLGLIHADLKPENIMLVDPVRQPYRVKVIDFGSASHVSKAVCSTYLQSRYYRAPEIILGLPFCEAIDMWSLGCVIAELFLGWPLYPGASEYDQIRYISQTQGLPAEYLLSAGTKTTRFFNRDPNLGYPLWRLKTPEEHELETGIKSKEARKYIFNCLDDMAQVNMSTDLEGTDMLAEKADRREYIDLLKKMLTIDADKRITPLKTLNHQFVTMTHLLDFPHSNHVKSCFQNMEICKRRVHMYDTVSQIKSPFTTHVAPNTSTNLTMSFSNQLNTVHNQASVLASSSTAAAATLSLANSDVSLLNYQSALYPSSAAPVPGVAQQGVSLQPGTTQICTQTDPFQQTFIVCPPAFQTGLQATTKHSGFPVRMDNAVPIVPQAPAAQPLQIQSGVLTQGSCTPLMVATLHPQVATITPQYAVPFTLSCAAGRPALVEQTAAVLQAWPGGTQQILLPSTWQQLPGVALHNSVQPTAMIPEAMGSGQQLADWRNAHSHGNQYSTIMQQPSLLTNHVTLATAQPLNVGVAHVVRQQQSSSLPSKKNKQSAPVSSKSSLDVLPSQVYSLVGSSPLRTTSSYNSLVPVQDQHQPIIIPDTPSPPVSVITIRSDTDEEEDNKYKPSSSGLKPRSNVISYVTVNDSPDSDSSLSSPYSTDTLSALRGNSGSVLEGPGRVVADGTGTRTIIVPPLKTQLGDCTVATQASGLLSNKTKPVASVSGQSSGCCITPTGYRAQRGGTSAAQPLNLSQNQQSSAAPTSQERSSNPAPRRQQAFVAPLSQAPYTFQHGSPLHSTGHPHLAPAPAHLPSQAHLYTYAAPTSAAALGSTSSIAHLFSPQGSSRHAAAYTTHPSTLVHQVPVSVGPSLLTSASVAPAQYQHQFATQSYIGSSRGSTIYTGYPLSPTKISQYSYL
In outline: as §1

Sequence of SRPK1 (h) (Q96SB4 whole entry): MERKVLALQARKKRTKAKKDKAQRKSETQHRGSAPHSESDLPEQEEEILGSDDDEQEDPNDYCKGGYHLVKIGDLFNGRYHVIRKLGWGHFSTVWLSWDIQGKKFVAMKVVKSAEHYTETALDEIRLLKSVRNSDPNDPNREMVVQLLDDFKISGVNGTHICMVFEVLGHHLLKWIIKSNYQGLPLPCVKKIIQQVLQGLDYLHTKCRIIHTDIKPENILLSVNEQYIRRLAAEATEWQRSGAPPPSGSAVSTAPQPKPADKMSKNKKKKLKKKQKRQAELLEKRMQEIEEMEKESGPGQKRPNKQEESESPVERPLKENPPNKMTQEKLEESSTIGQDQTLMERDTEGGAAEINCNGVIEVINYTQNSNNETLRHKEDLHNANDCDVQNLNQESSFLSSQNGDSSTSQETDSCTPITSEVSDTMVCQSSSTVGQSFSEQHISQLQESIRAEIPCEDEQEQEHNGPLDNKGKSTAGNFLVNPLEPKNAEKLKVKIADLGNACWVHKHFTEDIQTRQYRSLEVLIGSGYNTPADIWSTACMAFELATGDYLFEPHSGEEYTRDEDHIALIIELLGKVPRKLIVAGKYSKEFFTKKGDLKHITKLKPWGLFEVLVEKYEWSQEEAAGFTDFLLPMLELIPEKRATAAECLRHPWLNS
T7 sequence (Q13554 whole entry): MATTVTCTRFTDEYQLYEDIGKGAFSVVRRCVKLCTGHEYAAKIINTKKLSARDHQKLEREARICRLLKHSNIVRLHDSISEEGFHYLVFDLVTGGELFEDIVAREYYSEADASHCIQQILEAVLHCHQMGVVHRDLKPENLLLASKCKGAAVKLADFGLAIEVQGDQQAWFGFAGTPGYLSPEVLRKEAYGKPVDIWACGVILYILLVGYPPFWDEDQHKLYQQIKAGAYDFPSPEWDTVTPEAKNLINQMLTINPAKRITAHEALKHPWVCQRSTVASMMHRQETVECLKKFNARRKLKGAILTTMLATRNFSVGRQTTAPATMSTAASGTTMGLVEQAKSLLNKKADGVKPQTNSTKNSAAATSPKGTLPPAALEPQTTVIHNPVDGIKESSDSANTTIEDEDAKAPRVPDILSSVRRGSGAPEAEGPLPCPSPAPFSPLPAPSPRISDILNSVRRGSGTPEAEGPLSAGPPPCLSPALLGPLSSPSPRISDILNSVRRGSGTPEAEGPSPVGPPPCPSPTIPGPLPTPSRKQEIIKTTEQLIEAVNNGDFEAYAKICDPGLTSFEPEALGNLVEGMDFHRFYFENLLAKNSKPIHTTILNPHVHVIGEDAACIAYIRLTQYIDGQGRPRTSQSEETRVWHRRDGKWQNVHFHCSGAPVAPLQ
T4 sequence (Q9H2X6 whole entry): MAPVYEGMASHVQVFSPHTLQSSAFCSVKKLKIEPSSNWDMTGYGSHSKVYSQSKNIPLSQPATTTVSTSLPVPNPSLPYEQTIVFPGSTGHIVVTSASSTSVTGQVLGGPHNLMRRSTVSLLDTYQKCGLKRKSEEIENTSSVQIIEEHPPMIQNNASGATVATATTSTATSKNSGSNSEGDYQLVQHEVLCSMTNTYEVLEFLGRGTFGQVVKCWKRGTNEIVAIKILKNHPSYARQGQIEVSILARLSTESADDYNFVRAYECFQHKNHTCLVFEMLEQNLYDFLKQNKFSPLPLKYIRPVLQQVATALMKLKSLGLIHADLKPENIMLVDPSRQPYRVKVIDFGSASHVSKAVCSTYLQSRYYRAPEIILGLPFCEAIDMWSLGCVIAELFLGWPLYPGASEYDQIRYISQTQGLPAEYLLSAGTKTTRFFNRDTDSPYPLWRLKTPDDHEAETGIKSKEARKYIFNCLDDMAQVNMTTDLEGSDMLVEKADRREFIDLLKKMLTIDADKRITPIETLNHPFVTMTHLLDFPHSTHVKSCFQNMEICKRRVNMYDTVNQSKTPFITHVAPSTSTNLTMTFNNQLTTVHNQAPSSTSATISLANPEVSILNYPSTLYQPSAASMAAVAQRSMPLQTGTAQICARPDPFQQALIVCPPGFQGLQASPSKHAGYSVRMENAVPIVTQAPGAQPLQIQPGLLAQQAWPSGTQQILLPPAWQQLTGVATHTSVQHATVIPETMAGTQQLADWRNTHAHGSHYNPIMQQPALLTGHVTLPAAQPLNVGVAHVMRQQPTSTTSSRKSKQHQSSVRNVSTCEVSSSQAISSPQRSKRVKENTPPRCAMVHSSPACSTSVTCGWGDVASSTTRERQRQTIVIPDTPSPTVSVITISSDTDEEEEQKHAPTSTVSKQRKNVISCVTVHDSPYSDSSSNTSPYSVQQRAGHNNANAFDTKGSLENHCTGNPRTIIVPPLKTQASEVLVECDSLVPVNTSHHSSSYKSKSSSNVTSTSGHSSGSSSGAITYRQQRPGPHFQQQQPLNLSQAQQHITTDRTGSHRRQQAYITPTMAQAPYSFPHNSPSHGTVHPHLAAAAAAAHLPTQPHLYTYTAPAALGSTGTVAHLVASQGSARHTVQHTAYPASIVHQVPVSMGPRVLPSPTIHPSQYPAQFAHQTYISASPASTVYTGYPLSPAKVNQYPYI
T1 sequence (P49761 whole entry): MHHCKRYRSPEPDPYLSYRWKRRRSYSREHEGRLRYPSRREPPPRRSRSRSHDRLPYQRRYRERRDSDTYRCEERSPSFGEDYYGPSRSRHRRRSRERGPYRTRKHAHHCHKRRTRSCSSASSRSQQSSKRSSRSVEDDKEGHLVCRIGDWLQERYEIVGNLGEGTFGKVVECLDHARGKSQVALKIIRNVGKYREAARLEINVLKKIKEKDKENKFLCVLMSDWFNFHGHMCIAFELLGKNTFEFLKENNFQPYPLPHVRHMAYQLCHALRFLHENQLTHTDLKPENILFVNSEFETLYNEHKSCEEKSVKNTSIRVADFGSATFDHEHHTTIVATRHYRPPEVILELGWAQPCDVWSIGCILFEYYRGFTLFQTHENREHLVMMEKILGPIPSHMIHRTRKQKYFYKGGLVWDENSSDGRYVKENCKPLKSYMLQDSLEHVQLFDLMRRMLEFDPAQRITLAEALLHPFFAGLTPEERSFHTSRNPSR

As to FAKLAARLYRKALARQLGVAA [MMI-0300], the “% activity” value in assay [1] came to 61%; in assay [2], 26%; in [3] it was 83%; in assay [4], 73%; in [5], 6%; in assay [6] it was 126%. Besides, the “% activity” value in assay [7] amounted to 2%; in assay [8], 90%; in assay [9] it was 74%.
For KAFAKLAARLYRKALARQLGVAA [MMI-0400], the “% activity” value in assay [1] stood at 84%; in [2], 14%; in assay [3], 86%; in assay [4], 90%; in assay [5] it was 12%; in [6] it was 143%. Moreover, the “% activity” value in assay [7] came to 11%; in [8], 96%; in [9] it was 91%.
With “YARAAARQARAKALNRQLGVA (Mammalian) [MMI-0200]”, the “% activity” value in assay [1] is given as 76%; in [2], 32%; in assay [7] it was 53%; in assay [8], 93%.
“HRRIKAWLKKIKALARQLGVAA (Mammalian) [MMI-0500]”: the “% activity” value in assay [1] is given as 76%; in [2], 30%; in assay [3], 84%; in assay [4], 38%; in [5], 33%; in assay [6] it was 194%. The “% activity” value worked out at 3% in [7], 80% in [8] and 47% in assay [9].

Values taken from US10500249B2, “Compositions and methods for preventing or treating diseases, conditions, or processes characterized by aberrant fibroblast proliferation and extracellular matrix deposition” (MOERAE MATRIX, INC., priority 2014, dated 2019).
